The labels stand for the following.
T1: FVIIa (UniProt P08709 61-466)
T1 construct: also called factor VIIa
T1 sequence (looked up): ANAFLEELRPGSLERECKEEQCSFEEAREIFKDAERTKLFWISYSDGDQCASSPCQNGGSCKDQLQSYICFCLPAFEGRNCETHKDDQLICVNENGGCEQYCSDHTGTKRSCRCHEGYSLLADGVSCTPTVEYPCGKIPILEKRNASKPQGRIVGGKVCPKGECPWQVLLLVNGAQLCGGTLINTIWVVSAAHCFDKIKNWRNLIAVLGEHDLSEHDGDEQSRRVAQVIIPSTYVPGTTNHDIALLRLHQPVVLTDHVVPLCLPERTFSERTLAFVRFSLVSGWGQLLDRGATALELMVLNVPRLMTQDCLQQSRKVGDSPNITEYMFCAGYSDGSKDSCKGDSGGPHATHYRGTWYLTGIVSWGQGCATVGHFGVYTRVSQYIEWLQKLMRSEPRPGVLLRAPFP

B1: LP10 (SR16983-R3-P3-E06) (VHH, not shown: small tags and cut ends)
VHH: QVQLVESGGGLVQAGGSLRLSCAASGTIESINDMGWYRQAPGKQRELVATVSSSGMTNYADSAKGRFTISRDNAKNTMYLQMNSLKPEDTAVYYCKAHISRSYYYDSLGYDYWGQGTQVTVSS
notes: Llama VHH purified from E. coli periplasm
B2: LP12 (SR16983-R3-P3-F06) (VHH, not shown: small tags and cut ends)
VHH: QLQLVESGGGLVQAGDSLRLSCTSSGLTASTYAMAWFRQAPGKEREFVAVVDWKGDTTYANSVKGRFTLSRDNGKNTNYLQMNSLQPEDTALYYCAARGSPGYVARLYAHWGRGTQVTVSS
notes: as for B1
B3: LP7 (SR16983-R3-P2-H08) (VHH, not shown: small tags and cut ends)
VHH: EVQLVESGGGLVQAGGSLRLSCAASGTTFDMNSMGWYRQGPGFKRELVATISMGGDTNYADSVKGRFTISRANAKNTVYMQMNSLKPEDTAVYYCNAERIWPNRRTFWGQGTQVTVSS
notes: as for B1
B4: LP20 (SR16983-R4-P1-B07) (VHH, not shown: small tags and cut ends)
VHH: QLQLVESGGGLVQAGGSLRLSCTASGSTVRVTAGGWYRQTPGNERELVADIDNGGSTTYADSVKGRFTISRDNAKNAVDLQMNSLKPEDTAVYRCFVIAIPDSAPRPRAYWGQGTEVTVSS
notes: as for B1
B5: LP2 (SR16983-R2-P3-H10) (VHH, not shown: small tags and cut ends)
VHH: QVQLVESGGGLVQAGGSLRLSCAASGRPISAYTWAWFRQAPGKEREFVAAITSSAGTTYYADSVRGRFTISRDNAENTVYLRMNTLKPEDTAVYYCAADDQGDNWYDHWGQGTQVTVSS
notes: as for B1
B6: LP9 (SR16983-R3-P3-B05) (VHH, not shown: small tags and cut ends)
VHH: EVQLVESGGGLVQAGGSLRLSCAASGRTFVGSYVMGWFRQAPGKEREFVAASSRSTGNTVYLDSVKGRFTVSRDDAKNTLYLQMNSLKTEDTAVYYCATRASINYNAATWPYWGQGTQVTVSS
notes: as for B1
B7: LP8 (SR16983-R3-P3-A04) (VHH, not shown: small tags and cut ends)
VHH: QLQLVESGGGLVEAGGSLRLSCAASGRTFSSGALGWFRQAPGKEREFVATIRWSDERTQYSEFVKGRFTISRDNAKNTVYLQMNNLQPEDTAVYYCRSTVGNLLYWGQGTQVTVSS
notes: as for B1
B8: LP18 (SR16983-R4-P1-A11) (VHH, not shown: small tags and cut ends)
VHH: QLQLVESGGGLVQPGGSLRLSCAASGFTFSTKWMYWVRQGPGKGLERVAAIDAGGTSTYYADSVKGRFTISRDNSENTVYLQMNSLESADTAVYYCARSEGGLFRGRGTQVTVSA
notes: as for B1

Experimental findings from patent publication US20250163183A1 (COAGULANT THERAPEUTICS, published 2025) are described below.

T2 sequence (P04070 43-197, chain 1 of 2): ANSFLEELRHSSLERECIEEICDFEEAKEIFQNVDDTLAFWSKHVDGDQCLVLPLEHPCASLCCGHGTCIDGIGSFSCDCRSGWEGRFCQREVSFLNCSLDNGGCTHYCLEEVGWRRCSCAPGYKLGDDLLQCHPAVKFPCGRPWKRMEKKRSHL
T2 sequence (P04070 200-461, chain 2 of 2): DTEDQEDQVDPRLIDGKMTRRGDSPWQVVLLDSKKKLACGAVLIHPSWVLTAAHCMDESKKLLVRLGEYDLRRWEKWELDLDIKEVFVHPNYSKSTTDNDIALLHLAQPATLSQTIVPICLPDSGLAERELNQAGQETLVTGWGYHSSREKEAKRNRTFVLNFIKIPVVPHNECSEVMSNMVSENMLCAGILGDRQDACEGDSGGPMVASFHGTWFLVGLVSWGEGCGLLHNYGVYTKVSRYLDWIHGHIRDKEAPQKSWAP

The first test concerns the target T2, human protein C (PC) zymogen (human, UniProt P04070 43-197; P04070 200-461).
T2 construct: Bought
Description: ELISA.
For the molecule B1, the binding result was “no binding”.
On the same count and under the same terms, for B2 the value was “no binding”.

The target of a further test is T3, human activated protein C (APC) (human, UniProt P04070 43-461). Nature of the test: cell-based or functional assay.
T3 sequence (P04070 other isoform, or with tags, fused parts or gaps): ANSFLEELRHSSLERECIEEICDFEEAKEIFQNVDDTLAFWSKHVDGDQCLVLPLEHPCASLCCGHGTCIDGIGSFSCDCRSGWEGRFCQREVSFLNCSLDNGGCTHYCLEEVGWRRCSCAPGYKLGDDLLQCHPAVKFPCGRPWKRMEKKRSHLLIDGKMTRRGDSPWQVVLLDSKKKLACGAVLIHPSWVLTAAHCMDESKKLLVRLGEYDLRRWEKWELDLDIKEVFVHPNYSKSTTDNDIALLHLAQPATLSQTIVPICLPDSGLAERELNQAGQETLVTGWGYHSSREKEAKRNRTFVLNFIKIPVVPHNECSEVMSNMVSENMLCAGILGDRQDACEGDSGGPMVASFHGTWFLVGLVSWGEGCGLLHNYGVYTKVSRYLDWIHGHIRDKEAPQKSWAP
With B1, the “APC-mediated histone H3 cleavage, 500 nM nanobody” value (“APC-mediated histone H3 cleavage” for short) is < 75 % residual activity.
Same read-out and setting: for B3 the value was < 75 % residual activity.
For the molecule B4, the “Protac-APTT clotting time, 300 nM nanobody” value (“Protac-APTT clotting time” for short) was > 90%.
On to B5, for which the “APC-mediated histone H3 cleavage” value is < 75 % residual activity and the “Protac-APTT clotting time” value is > 90%.
With B2, the “APC-mediated histone H3 cleavage” value is < 75 % residual activity.
Turning to B6, the “Protac-APTT clotting time” value was > 90%.
Turning to B7, the “APC-mediated histone H3 cleavage” value was < 75 % residual activity and the “Protac-APTT clotting time” value is > 90%.
Take B8: the “R46/R41 cleavage ratio of PAR1 by APC” value is > 1 ratio.

A further test addresses T3, human activated protein C (APC). Description: cell-based or functional assay. The source holds these as a separate data set.
Regarding B1, the “APC plasma T1/2 (min; mean)” value is 29.3 min.
Still for that read-out and setting: for B3 the value was 33.9 min; for B4, 85.6 min; for B5, 38.2 min.
On the same count and under the same terms, the figure for B2 is 50.1 min; for B6 it is 27.7 min; for B8 it is 16.1 min.

For a further test the target is unchanged. Description: BLI, VHH captured via anti-V5, APC in solution.
Molecule B1 returned a Kd of 4.5 nM, a koff of 0.0011 s⁻¹ and a kon of 230000 M⁻¹ s⁻¹.
For B3 the same measures were 9.4 nM, 0.0041 s⁻¹ and 440000 M⁻¹ s⁻¹.
For B4 the same measures were 1.9 nM, 0.0007 s⁻¹ and 380000 M⁻¹ s⁻¹.
The corresponding values for B5 are 8.8 nM, 0.0011 s⁻¹ and 130000 M⁻¹ s⁻¹.
B2 returned a Kd of 0.68 nM, a koff of 0.00026 s⁻¹ and a kon of 380000 M⁻¹ s⁻¹.
In the case of B6, the Kd came out at 0.003 nM, the koff was determined as 6.3e-07 s⁻¹ and the kon amounted to 210000 M⁻¹ s⁻¹.
For B7 the same measures were 2.8 nM, 0.0017 s⁻¹ and 620000 M⁻¹ s⁻¹.
In the case of B8, binding was characterised by a dissociation constant (Kd) of 4.5 nM, the koff was determined as 0.0011 s⁻¹ and the kon is 240000 M⁻¹ s⁻¹.

The target in another test is T2, human protein C (PC) zymogen. Description: ELISA screen, PC-coated wells, OD450, n=2.
On to B5, for which the binding result is listed as “no binding”.
Still for that read-out and setting: the entry for B7 is “no binding”.

For another test, the target named is T4, FXIa (UniProt P03951 19-625).
T4 construct: also called factor XIa
T4 sequence (P03951 19-625 limits assumed): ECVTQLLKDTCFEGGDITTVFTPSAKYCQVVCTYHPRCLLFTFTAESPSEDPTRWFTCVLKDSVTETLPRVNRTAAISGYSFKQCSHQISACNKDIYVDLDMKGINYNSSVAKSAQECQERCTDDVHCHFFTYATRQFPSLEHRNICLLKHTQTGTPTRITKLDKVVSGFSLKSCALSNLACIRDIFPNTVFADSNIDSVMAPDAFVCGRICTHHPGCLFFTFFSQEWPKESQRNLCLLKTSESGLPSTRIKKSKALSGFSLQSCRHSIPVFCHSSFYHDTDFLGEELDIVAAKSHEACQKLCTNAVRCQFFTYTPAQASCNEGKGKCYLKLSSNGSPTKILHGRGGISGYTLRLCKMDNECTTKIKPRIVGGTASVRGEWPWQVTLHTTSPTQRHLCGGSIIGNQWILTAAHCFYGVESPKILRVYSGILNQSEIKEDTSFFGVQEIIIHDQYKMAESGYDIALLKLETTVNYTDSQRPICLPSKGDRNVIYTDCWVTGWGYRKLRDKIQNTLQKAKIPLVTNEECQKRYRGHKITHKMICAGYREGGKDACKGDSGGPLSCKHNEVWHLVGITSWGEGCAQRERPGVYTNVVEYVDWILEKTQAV
Description: ELISA, FXIa coated at 10 µg/mL, HRP-anti-V5, n=3.
In the case of B1, the binding result is “no binding (tested: 2 µg/mL)”.
On to B3, for which the binding result is recorded as “no binding (tested: 2 µg/mL)”.
The same measure, in the same setting: the entry for B4 is “no binding (tested: 2 µg/mL)”; for B5 it is “no binding (tested: 2 µg/mL)”.
On the same count and under the same terms, for B2 the value was “no binding (tested: 2 µg/mL)”; for B6, “no binding (tested: 2 µg/mL)”; for B7, “no binding (tested: 2 µg/mL)”.
Still for that read-out and setting: for B8 the value was “no binding (tested: 2 µg/mL)”.

In the next test the target is T1, FVIIa. Description: ELISA, FVIIa coated at 10 µg/mL, HRP-anti-V5, n=3.
Turning to B1, the binding result is “no binding (tested: 2 µg/mL)”.
The same measure, in the same setting: for B3 the value was “no binding (tested: 2 µg/mL)”; for B4, “no binding (tested: 2 µg/mL)”; for B5, “no binding (tested: 2 µg/mL)”.
Still for that read-out and setting: for B2 the value was “no binding (tested: 2 µg/mL)”; for B6, “no binding (tested: 2 µg/mL)”; for B7, “no binding (tested: 2 µg/mL)”.
On the same count and under the same terms, for B8 the value was “no binding (tested: 2 µg/mL)”.

In a further test the target is T2, human protein C (PC) zymogen. Description: ELISA screen, PC-coated wells, OD450, n=2 [Continued].
As to B4, the binding result is “no binding”.
Still for that read-out and setting: the entry for B6 is “no binding”.

A further test concerns the target T3, human activated protein C (APC). Description: BLI; end tied to LP2 by Table 5; lower end of the kon range; LP2.
Turning to B5, the kon amounted to 126000 M⁻¹ s⁻¹.

The next test has the same target. Nature of the test: BLI; end tied to LP8 by Table 5; upper end of the kon range; LP8.
Take B7: the kon is 622000 M⁻¹ s⁻¹.

A further test concerns the target T2, human protein C (PC) zymogen. Description: ELISA screen, PC-coated wells, OD450, n=2 [Continued]. The source holds these as a separate data set.
Take B3: the binding result is “no binding”.
The same measure, in the same setting: for B8 the value was “no binding”.

The target in the next test is T3, human activated protein C (APC). Description: BLI; end tied to LP12 by Table 5; lower end of the koff range, LP9 set apart; LP12.
B2 came in with a koff of 0.000259 s⁻¹.

The target is the same in a further test. Description: BLI (Octet), nanobody captured, 5 APC concentrations, 1:1 model; written in place of a bar.
Regarding B6, the Kd was < 0.01 nM.

A further test has the same target. Nature of the test: BLI (Octet): nanobody captured on anti-V5 sensor, dipped in 500 nM APC; buffer sensor reads 0.06.
In the case of B1, the “APC binding (nm)” value was 0.29 nm.
With B3, the “APC binding (nm)” value was found to be 0.34 nm.
Still for that read-out and setting: for B4 the value was 0.3 nm; for B5, 0.29 nm.
In the case of B2, the “APC binding (nm)” value is 0.31 nm.
Same read-out and setting: the figure for B6 is 0.33 nm.
The same measure, in the same setting: for B7 the value was 0.32 nm; for B8, 0.29 nm.
